Experimental data published in paper PMC9482650, “Quantitative fragmentomics allow affinity mapping of interactomes” (Nature Communications, 2022).

T1: PDZRN3_2, Q9UPQ7
T1 sequence (Q9UPQ7 414-513, limits assumed, looked up): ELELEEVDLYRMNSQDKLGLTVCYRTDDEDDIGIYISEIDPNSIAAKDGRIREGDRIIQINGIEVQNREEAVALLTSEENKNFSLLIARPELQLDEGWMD

T2: LIN7C, Q9NUP9
T2 sequence (Q9NUP9 88-185, limits assumed, looked up): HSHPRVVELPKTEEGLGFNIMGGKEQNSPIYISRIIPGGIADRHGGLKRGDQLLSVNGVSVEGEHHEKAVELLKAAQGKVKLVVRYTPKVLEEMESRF

T3: PDZD2_1, O15018
T3 sequence (O15018 80-192, limits assumed, looked up): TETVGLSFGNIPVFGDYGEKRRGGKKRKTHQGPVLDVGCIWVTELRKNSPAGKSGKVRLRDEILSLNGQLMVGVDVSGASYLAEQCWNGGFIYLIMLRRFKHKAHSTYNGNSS

T4: PARD6G, Q9BYG4
T4 sequence (Q9BYG4 153-261, limits assumed, looked up): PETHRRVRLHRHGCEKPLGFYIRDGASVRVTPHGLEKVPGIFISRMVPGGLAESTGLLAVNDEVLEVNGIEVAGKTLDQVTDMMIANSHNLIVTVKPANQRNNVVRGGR

T5: MPP5, Q8N3R9
T5 sequence (Q8N3R9 251-346, limits assumed, looked up): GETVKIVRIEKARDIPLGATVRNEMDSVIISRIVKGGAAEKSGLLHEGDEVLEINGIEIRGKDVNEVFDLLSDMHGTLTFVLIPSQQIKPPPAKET

T6: USH1C_3, Q9Y6N9
T6 sequence (Q9Y6N9 447-547, limits assumed, looked up): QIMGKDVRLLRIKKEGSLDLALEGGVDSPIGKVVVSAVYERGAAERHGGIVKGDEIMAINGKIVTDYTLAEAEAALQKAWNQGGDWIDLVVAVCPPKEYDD

T7: PDZD11, Q5EBL8
T7 sequence (Q5EBL8 42-139, limits assumed, looked up): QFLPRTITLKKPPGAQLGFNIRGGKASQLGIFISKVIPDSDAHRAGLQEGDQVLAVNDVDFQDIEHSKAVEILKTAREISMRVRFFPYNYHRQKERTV

T8: MPDZ_7, O75970
T8 sequence (O75970 1146-1253, limits assumed, looked up): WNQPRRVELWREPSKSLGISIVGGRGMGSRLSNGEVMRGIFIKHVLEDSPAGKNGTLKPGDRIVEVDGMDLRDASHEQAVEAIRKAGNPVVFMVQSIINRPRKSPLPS

T9: PDLIM3, Q53GG5
T9 sequence (Q53GG5 1-94, limits assumed, looked up): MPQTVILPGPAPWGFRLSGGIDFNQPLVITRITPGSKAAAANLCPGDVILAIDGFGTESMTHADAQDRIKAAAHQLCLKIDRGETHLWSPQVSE

T10: NHERF3_2, Q5T2W1
T10 sequence (Q5T2W1 129-225, limits assumed, looked up): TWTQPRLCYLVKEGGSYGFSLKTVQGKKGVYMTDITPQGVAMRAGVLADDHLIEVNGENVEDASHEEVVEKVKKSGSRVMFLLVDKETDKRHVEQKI

T11: DFNB31_2, Q9P202
T11 sequence (Q9P202 274-371, limits assumed, looked up): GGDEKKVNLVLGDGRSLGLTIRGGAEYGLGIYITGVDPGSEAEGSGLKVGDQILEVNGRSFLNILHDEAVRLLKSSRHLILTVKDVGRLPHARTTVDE

T12: USH1C_1, Q9Y6N9
T12 sequence (Q9Y6N9 82-179, limits assumed, looked up): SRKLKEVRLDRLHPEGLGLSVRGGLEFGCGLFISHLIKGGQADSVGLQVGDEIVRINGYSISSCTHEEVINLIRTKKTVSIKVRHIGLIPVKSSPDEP

T13: MPDZ_3, O75970
T13 sequence (O75970 372-473, limits assumed, looked up): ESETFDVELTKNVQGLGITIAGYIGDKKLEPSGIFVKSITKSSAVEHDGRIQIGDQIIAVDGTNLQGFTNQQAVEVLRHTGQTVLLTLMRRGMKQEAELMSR

T14: SYNPO2L, Q9H987
T14 sequence (Q9H987 1-98, limits assumed, looked up): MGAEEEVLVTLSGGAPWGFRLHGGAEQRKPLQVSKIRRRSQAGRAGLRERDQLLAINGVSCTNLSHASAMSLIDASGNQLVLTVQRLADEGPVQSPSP


Target: T1, PDZRN3_2, Q9UPQ7
Assay: holdup assay
Set-up: key: below the threshold = too weak to quantify, mostly under pKd 3.1 to 4
Details: plain residues with an end cap or a label only (N-terminal biotin on a linker: ttds)

| Binder | pKd |
| --- | --- |
| DPLTPSRSQL [DGKK, Q5KSL6] | 4.11 |
| MERLRVETDV [ARHGEF16, Q5VV41] | below the threshold |

Target: T2, LIN7C, Q9NUP9
Assay: holdup assay
Set-up: key: below the threshold = too weak to quantify, mostly under pKd 3.1 to 4
Details: plain residues with an end cap or a label only (N-terminal biotin on a linker: ttds)

| Binder | pKd |
| --- | --- |
| DPLTPSRSQL [DGKK, Q5KSL6] | below the threshold |
| MERLRVETDV [ARHGEF16, Q5VV41] | below the threshold |

Target: T3, PDZD2_1, O15018
Assay: holdup assay
Set-up: key: below the threshold = too weak to quantify, mostly under pKd 3.1 to 4
Details: plain residues with an end cap or a label only (N-terminal biotin on a linker: ttds)

| Binder | pKd |
| --- | --- |
| DPLTPSRSQL [DGKK, Q5KSL6] | below the threshold |
| MERLRVETDV [ARHGEF16, Q5VV41] | below the threshold |

Target: T4, PARD6G, Q9BYG4
Assay: holdup assay
Set-up: key: below the threshold = too weak to quantify, mostly under pKd 3.1 to 4
Details: plain residues with an end cap or a label only (N-terminal biotin on a linker: ttds)

| Binder | pKd |
| --- | --- |
| DPLTPSRSQL [DGKK, Q5KSL6] | below the threshold |
| MERLRVETDV [ARHGEF16, Q5VV41] | below the threshold |

Target: MAGI3_6, Q5TCQ9
Assay: holdup assay
Set-up: key: below the threshold = too weak to quantify, mostly under pKd 3.1 to 4
Details: plain residues with an end cap or a label only (N-terminal biotin on a linker: ttds)

Sequence of MAGI3_6, Q5TCQ9 (Q5TCQ9 1014-1103): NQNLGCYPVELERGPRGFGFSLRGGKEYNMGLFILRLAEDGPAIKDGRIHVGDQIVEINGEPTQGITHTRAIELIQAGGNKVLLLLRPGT

| Binder | pKd |
| --- | --- |
| DPLTPSRSQL [DGKK, Q5KSL6] | below the threshold |
| MERLRVETDV [ARHGEF16, Q5VV41] | below the threshold |

Target: T5, MPP5, Q8N3R9
Assay: holdup assay
Set-up: key: below the threshold = too weak to quantify, mostly under pKd 3.1 to 4
Details: plain residues with an end cap or a label only (N-terminal biotin on a linker: ttds)

| Binder | pKd |
| --- | --- |
| DPLTPSRSQL [DGKK, Q5KSL6] | below the threshold |
| MERLRVETDV [ARHGEF16, Q5VV41] | below the threshold |

Target: T6, USH1C_3, Q9Y6N9
Assay: holdup assay
Set-up: key: below the threshold = too weak to quantify, mostly under pKd 3.1 to 4
Details: plain residues with an end cap or a label only (N-terminal biotin on a linker: ttds)

| Binder | pKd |
| --- | --- |
| DPLTPSRSQL [DGKK, Q5KSL6] | below the threshold |
| MERLRVETDV [ARHGEF16, Q5VV41] | below the threshold |

Target: T7, PDZD11, Q5EBL8
Assay: holdup assay
Set-up: key: below the threshold = too weak to quantify, mostly under pKd 3.1 to 4
Details: plain residues with an end cap or a label only (N-terminal biotin on a linker: ttds)

| Binder | pKd |
| --- | --- |
| DPLTPSRSQL [DGKK, Q5KSL6] | below the threshold |
| MERLRVETDV [ARHGEF16, Q5VV41] | below the threshold |

Target: T8, MPDZ_7, O75970
Assay: holdup assay
Set-up: key: below the threshold = too weak to quantify, mostly under pKd 3.1 to 4
Details: plain residues with an end cap or a label only (N-terminal biotin on a linker: ttds)

| Binder | pKd |
| --- | --- |
| DPLTPSRSQL [DGKK, Q5KSL6] | below the threshold |
| MERLRVETDV [ARHGEF16, Q5VV41] | below the threshold |

Target: PDZRN4_2, Q6ZMN7
Assay: holdup assay
Set-up: key: below the threshold = too weak to quantify, mostly under pKd 3.1 to 4
Details: plain residues with an end cap or a label only (N-terminal biotin on a linker: ttds)

Sequence of PDZRN4_2, Q6ZMN7 (Q6ZMN7 389-498): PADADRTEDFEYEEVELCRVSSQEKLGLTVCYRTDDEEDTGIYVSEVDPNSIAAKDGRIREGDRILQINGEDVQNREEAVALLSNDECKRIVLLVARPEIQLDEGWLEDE

| Binder | pKd |
| --- | --- |
| DPLTPSRSQL [DGKK, Q5KSL6] | 4.05 |
| MERLRVETDV [ARHGEF16, Q5VV41] | below the threshold |

Target: T9, PDLIM3, Q53GG5
Assay: holdup assay
Set-up: key: below the threshold = too weak to quantify, mostly under pKd 3.1 to 4
Details: plain residues with an end cap or a label only (N-terminal biotin on a linker: ttds)

| Binder | pKd |
| --- | --- |
| DPLTPSRSQL [DGKK, Q5KSL6] | below the threshold |
| MERLRVETDV [ARHGEF16, Q5VV41] | below the threshold |

Target: T10, NHERF3_2, Q5T2W1
Assay: holdup assay
Set-up: key: below the threshold = too weak to quantify, mostly under pKd 3.1 to 4
Details: plain residues with an end cap or a label only (N-terminal biotin on a linker: ttds)

| Binder | pKd |
| --- | --- |
| DPLTPSRSQL [DGKK, Q5KSL6] | below the threshold |
| MERLRVETDV [ARHGEF16, Q5VV41] | below the threshold |

Target: T11, DFNB31_2, Q9P202
Assay: holdup assay
Set-up: key: below the threshold = too weak to quantify, mostly under pKd 3.1 to 4
Details: plain residues with an end cap or a label only (N-terminal biotin on a linker: ttds)

| Binder | pKd |
| --- | --- |
| DPLTPSRSQL [DGKK, Q5KSL6] | below the threshold |
| MERLRVETDV [ARHGEF16, Q5VV41] | below the threshold |

Target: NHERF2_1, Q15599
Assay: holdup assay
Set-up: key: below the threshold = too weak to quantify, mostly under pKd 3.1 to 4
Details: plain residues with an end cap or a label only (N-terminal biotin on a linker: ttds)

Sequence of NHERF2_1, Q15599 (Q15599 9-91): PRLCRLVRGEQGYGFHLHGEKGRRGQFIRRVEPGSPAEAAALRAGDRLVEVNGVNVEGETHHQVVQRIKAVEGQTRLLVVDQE

| Binder | pKd |
| --- | --- |
| DPLTPSRSQL [DGKK, Q5KSL6] | below the threshold |
| MERLRVETDV [ARHGEF16, Q5VV41] | below the threshold |

Target: T12, USH1C_1, Q9Y6N9
Assay: holdup assay
Set-up: key: below the threshold = too weak to quantify, mostly under pKd 3.1 to 4
Details: plain residues with an end cap or a label only (N-terminal biotin on a linker: ttds)

| Binder | pKd |
| --- | --- |
| DPLTPSRSQL [DGKK, Q5KSL6] | below the threshold |
| MERLRVETDV [ARHGEF16, Q5VV41] | below the threshold |

Target: Inadl_7, Q8NI35
Assay: holdup assay
Set-up: key: below the threshold = too weak to quantify, mostly under pKd 3.1 to 4
Details: plain residues with an end cap or a label only (N-terminal biotin on a linker: ttds)

Sequence of Inadl_7, Q8NI35 (Q8NI35 1219-1332): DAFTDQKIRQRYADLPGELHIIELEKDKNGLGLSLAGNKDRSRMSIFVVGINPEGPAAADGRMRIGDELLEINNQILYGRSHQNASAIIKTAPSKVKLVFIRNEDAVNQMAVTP

| Binder | pKd |
| --- | --- |
| DPLTPSRSQL [DGKK, Q5KSL6] | below the threshold |
| MERLRVETDV [ARHGEF16, Q5VV41] | below the threshold |

Target: PTPN13_2, Q12923
Assay: holdup assay
Set-up: key: below the threshold = too weak to quantify, mostly under pKd 3.1 to 4
Details: plain residues with an end cap or a label only (N-terminal biotin on a linker: ttds)

Sequence of PTPN13_2, Q12923 (Q12923 1363-1462): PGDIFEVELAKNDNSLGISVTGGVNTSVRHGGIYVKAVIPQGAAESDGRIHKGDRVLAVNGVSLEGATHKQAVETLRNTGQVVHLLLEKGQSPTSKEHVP

| Binder | pKd |
| --- | --- |
| DPLTPSRSQL [DGKK, Q5KSL6] | 4.4 |
| MERLRVETDV [ARHGEF16, Q5VV41] | below the threshold |

Target: RIMS2, Q9UQ26
Assay: holdup assay
Set-up: key: below the threshold = too weak to quantify, mostly under pKd 3.1 to 4
Details: plain residues with an end cap or a label only (N-terminal biotin on a linker: ttds)

Sequence of RIMS2, Q9UQ26 (Q9UQ26 637-758): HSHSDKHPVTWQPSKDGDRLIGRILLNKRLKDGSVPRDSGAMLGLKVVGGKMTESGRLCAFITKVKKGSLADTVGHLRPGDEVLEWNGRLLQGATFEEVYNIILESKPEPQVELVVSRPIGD

| Binder | pKd |
| --- | --- |
| DPLTPSRSQL [DGKK, Q5KSL6] | below the threshold |
| MERLRVETDV [ARHGEF16, Q5VV41] | below the threshold |

Target: MAGI3_4, Q5TCQ9
Assay: holdup assay
Set-up: key: below the threshold = too weak to quantify, mostly under pKd 3.1 to 4
Details: plain residues with an end cap or a label only (N-terminal biotin on a linker: ttds)

Sequence of MAGI3_4, Q5TCQ9 (Q5TCQ9 716-815): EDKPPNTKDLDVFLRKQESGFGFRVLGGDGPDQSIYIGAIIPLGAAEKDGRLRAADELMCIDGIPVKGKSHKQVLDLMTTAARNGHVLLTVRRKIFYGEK

| Binder | pKd |
| --- | --- |
| DPLTPSRSQL [DGKK, Q5KSL6] | below the threshold |
| MERLRVETDV [ARHGEF16, Q5VV41] | below the threshold |

Target: T13, MPDZ_3, O75970
Assay: holdup assay
Set-up: key: below the threshold = too weak to quantify, mostly under pKd 3.1 to 4
Details: plain residues with an end cap or a label only (N-terminal biotin on a linker: ttds)

| Binder | pKd |
| --- | --- |
| DPLTPSRSQL [DGKK, Q5KSL6] | below the threshold |
| MERLRVETDV [ARHGEF16, Q5VV41] | below the threshold |

Target: CNKSR3, Q6P9H4
Assay: holdup assay
Set-up: key: below the threshold = too weak to quantify, mostly under pKd 3.1 to 4
Details: plain residues with an end cap or a label only (N-terminal biotin on a linker: ttds)

Sequence of CNKSR3, Q6P9H4 (Q6P9H4 203-303): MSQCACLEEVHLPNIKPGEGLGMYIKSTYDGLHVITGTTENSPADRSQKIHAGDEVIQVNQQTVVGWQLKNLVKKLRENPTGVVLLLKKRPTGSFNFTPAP

| Binder | pKd |
| --- | --- |
| DPLTPSRSQL [DGKK, Q5KSL6] | below the threshold |
| MERLRVETDV [ARHGEF16, Q5VV41] | below the threshold |

Target: DVL2, O14641
Assay: holdup assay
Set-up: key: below the threshold = too weak to quantify, mostly under pKd 3.1 to 4
Details: plain residues with an end cap or a label only (N-terminal biotin on a linker: ttds)

Sequence of DVL2, O14641 (O14641 260-359): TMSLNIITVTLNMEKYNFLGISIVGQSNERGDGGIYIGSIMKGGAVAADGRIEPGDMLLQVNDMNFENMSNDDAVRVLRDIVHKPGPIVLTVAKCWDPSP

| Binder | pKd |
| --- | --- |
| DPLTPSRSQL [DGKK, Q5KSL6] | 4.14 |
| MERLRVETDV [ARHGEF16, Q5VV41] | below the threshold |

Target: T14, SYNPO2L, Q9H987
Assay: holdup assay
Set-up: key: below the threshold = too weak to quantify, mostly under pKd 3.1 to 4
Details: plain residues with an end cap or a label only (N-terminal biotin on a linker: ttds)

| Binder | pKd |
| --- | --- |
| DPLTPSRSQL [DGKK, Q5KSL6] | below the threshold |
| MERLRVETDV [ARHGEF16, Q5VV41] | below the threshold |
